Assays:
[1] = biological target: full-length ectodomain of human CSF-1R (hCSF-1R D1-D5) (human, UniProt P07333 20-517); assay: ITC
[2] = biological target: N-terminal three Ig-like domains of human CSF-1R (hCSF-1R D1-D3) (human, UniProt P07333 20-298); assay: ITC
Chain of N-terminal three Ig-like domains of human CSF-1R (hCSF-1R D1-D3) (P07333 20-298): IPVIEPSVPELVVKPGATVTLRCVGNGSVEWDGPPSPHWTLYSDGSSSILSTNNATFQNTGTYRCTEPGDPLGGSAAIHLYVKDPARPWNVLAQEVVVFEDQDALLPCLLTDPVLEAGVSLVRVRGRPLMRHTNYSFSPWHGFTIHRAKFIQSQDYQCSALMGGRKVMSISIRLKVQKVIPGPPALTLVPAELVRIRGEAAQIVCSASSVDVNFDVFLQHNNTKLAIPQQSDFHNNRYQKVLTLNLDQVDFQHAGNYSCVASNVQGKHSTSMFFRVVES

Chain of full-length ectodomain of human CSF-1R (hCSF-1R D1-D5) (P07333 20-517): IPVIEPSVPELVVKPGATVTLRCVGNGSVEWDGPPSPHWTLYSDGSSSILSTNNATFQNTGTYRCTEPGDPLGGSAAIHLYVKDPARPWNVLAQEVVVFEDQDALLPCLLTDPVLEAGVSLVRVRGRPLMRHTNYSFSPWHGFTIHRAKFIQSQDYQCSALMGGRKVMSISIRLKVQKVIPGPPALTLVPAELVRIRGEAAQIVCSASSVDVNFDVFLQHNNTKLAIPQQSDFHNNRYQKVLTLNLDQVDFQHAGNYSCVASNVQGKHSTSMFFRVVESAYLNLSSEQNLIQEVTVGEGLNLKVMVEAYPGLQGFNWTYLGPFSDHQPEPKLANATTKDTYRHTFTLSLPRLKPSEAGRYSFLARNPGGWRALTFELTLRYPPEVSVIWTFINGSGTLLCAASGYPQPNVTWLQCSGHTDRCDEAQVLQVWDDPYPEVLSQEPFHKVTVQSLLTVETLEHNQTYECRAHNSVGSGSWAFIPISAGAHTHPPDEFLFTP

B1: human IL-34 (ligand, UniProt Q6ZMJ4 21-242, looked up)
chain: NEPLEMWPLTQNEECTVTGFLRDKLQYRSRLQYMKHYFPINYKISVPYEGVFRIANVTRLQRAQVSERELRYLWVLVSLSATESVQDVLLEGHPSWKYLQEVETLLLNVQQGLTDVEVSPKVESVLSLLNAPGPNLKLVRPKALLDNCFRVMELLYCSCCKQSSVLNWQDCEVPSPQSCSPEPSLQYAATQLYPPPPWSPSSPPHSTGSVRPVRAQGEGLLP
fold higher affinity than to CSF-1R D1-D3 [1]: ~400 fold | stoichiometry N [1]: 1 | stoichiometry N [2]: 1

Reference: publication PMC3372767 (Biochimica et Biophysica Acta, 2012)
